# Assay results reported in US11906524B2, “Urea biosensors and uses thereof” (Duke University, priority 2015, dated 2024).
# Changes are numbered by the printed parent chain. Names and notes keep the numbering of the source.
# B1: csUBP7 T26C: csUBP7 26C cysteine mutant (SEQ ID NO: 23), tested as Acrylodan and Badan conjugates (conjugate)
# chain: MSSSESEKEKSEETIKVGILHSLSGCMSISEVSLKDAELMAIEEINNNGGVLGKKLEPIVEDGASDWPTFAEKAKKLLQKDKVAVIFGAWTSASRKAVLPVVEENNGLLFYPVQYEGLESSPNIFYMGAAPNQQIVPAVKWLFDNGKKRFYLLGSDYVFPRTANKIIKAYLKYLGGVVVGEEYTPLGHTDYSSVINKIKAAKPDVVFNTLNGDSNVAFFKQLKDAGIDANTLPVMSVSIAEEEIKGIGPEYLKGHLVTWNYFQSVDTPENKEFVEKYKKKYGEDRVTDDPIEAAYIGVYLWAKAVEKAGSTDVDKVREAAKGIEFNAPEGPVKIDGDNQHLYKTVRIGEILENGQIRELWKTNKPVKPDPYLKGYEWAQGLSEQGGSHHHHHH
# modifications: Acrylodan or Badan conjugate; csUBP7_26C (26C substitution mutant with signal peptide replaced with M and a GGSHHHHHH at C-terminus, and also comprising a C89A substitution)
# B2: csUBP7 W90C: csUBP7 90C cysteine mutant (SEQ ID NO: 28), tested as Acrylodan and Badan conjugates (conjugate)
# chain: B1 chain with C26T, W90C
# modifications: Acrylodan or Badan conjugate; csUBP7_90C (90C substitution mutant with signal peptide replaced with M and a GGSHHHHHH at C-terminus, and also comprising a C89A substitution)
# B3: csUBP7 Y157C: csUBP7 157C cysteine mutant (SEQ ID NO: 37), tested as Acrylodan and Badan conjugates (conjugate)
# chain: B1 chain with C26T, Y157C
# modifications: Acrylodan or Badan conjugate; csUBP7_157C (157C substitution mutant with signal peptide replaced with M and a GGSHHHHHH at C-terminus, and also comprising a C89A substitution)
# B4: csUBP7 T91C: csUBP7 91C cysteine mutant (SEQ ID NO: 29), tested as Acrylodan and Badan conjugates (conjugate)
# chain: B1 chain with C26T, T91C
# modifications: Acrylodan or Badan conjugate; csUBP7_91C (91C substitution mutant with signal peptide replaced with M and a GGSHHHHHH at C-terminus, and also comprising a C89A substitution)
# B5: csUBP7 T69C: csUBP7 69C cysteine mutant (SEQ ID NO: 27), tested as Acrylodan and Badan conjugates (conjugate)
# chain: B1 chain with C26T, T69C
# modifications: Acrylodan or Badan conjugate; csUBP7_69C (69C substitution mutant with signal peptide replaced with M and a GGSHHHHHH at C-terminus, and also comprising a C89A substitution)
# B6: csUBP7 L186C: csUBP7 186C cysteine mutant (SEQ ID NO: 40), tested as Acrylodan and Badan conjugates (conjugate)
# chain: B1 chain with C26T, L186C
# modifications: Acrylodan or Badan conjugate; csUBP7_186C (186C substitution mutant with signal peptide replaced with M and a GGSHHHHHH at C-terminus, and also comprising a C89A substitution)
# B7: csUBP7 S30C: csUBP7 30C cysteine mutant (SEQ ID NO: 25), tested as Acrylodan and Badan conjugates (conjugate)
# chain: B1 chain with C26T, S30C
# modifications: Acrylodan or Badan conjugate; csUBP7_30C (30C substitution mutant with signal peptide replaced with M and a GGSHHHHHH at C-terminus, and also comprising a C89A substitution)
# B8: csUBP7 E116C: csUBP7 116C cysteine mutant (SEQ ID NO: 36), tested as Acrylodan and Badan conjugates (conjugate)
# chain: B1 chain with C26T, E116C
# modifications: Acrylodan or Badan conjugate; csUBP7_116C (116C substitution mutant with signal peptide replaced with M and a GGSHHHHHH at C-terminus, and also comprising a C89A substitution)
# B9: csUBP7 M27C: csUBP7 27C cysteine mutant (SEQ ID NO: 24), tested as Acrylodan and Badan conjugates (conjugate)
# chain: B1 chain with C26T, M27C
# modifications: Acrylodan or Badan conjugate; csUBP7_27C (27C substitution mutant with signal peptide replaced with M and a GGSHHHHHH at C-terminus, and also comprising a C89A substitution)
# Test: Temperature- and urea-dependent fluorescence landscapes of fluorescent conjugates (Roche LightCycler)
# Format: binding
# Parameters: key: y, yes; n, no
# Settings: Acrylodan conjugate; fluorescent response to urea
# Method: We constructed 20 single cysteine mutants in csUBP7, exploring 7 endosteric, 12 peristeric, and 1 allosteric position (FIG. 9). At each position we attached the Prodan-derived fluorophores Acrylodan and Badan, which differ by one methylene group in their thiol-reactive linker. The fluorescent responses of these conjugates was determined initially as a function of urea concentration and temperature (FIG. 10). […] The ligand dependence of the emission spectra shapes was determined for these conjugates (Table 8).
# Determination of temperature- and ligand-dependent fluorescence landscapes. […] Urea concentrations were varied from 0-4.8 M in 20 mM KCl, 20 mM MOPS (pH 7.4). […] Temperatures were advanced in 1K steps.
# (§1) Ratiometric analysis of urea binding. […] 2
# (§2) For a single urea-binding site, the fractional saturation is given by
# (§3) [formula] where [L] is the ligand (urea) concentration and Kd the dissociation constant, ^trueKd for ytrue.
# To obtain the temperature dependence of the binding reaction, the Kd values of all the individually determined isotherms were fit the Gibbs-Hemholtz equation (Layton and Hellinga, 2010, Biochemistry, 49, 10831-41):
# [formula] where ΔGb^•(T) is the standard free energy of binding at 1 M ligand at temperature T,
# [formula] Δ^refHb^• and Δ^refSb^• the molar enthalpy and entropy of binding, respectively, at the reference temperature, Tref, and ΔCp,b the heat capacity of the binding reaction.
row,Molecule,Response
1,B1,y
2,B2,y
3,B3,y
4,B4,n
5,B5,n
6,B6,y
7,B7,y
8,B8,y
9,B9,y

# Same assay, conditions: Badan conjugate; fluorescent response to urea
row,Molecule,Response
1,B1,y
2,B2,y
3,B3,y
4,B4,y
5,B5,y
6,B6,n
7,B7,y
8,B8,y
9,B9,y

# Test: Urea titration of emission intensity spectra (Nanodrop3300) with ratiometric analysis, singly labeled conjugates
# Format: binding
# Parameters: key to Acrylodan Intensity / Badan Intensity: +, increases in response to urea; −, decreases; 0, no change; key to Badan Dipoles / Acrylodan Dipoles: blue, (maxima <500 nm); g, green (maxima >500 nm); b/g, mixed population; key to Acrylodan Shape / Badan Shape: m, monochromatic; d, dichromatic (i.e. spectral shape changes); 0, no change
# Settings: csUBP7 Acrylodan conjugate; emission intensity change on urea
# Source text: Determination of emission intensity spectra.
# as §1, §2, §3
# [formula] where ^appIλ2 and ^satIλ2 are the emission intensities of the monochromatic signal at wavelength λ2 of the ligand-free and ligand-bound protein, respectively.
row,Molecule,Acrylodan Intensity
1,B1,−
2,B2,+
3,B3,+
4,B4,−
5,B6,−
6,B7,+
7,B8,+
8,B9,+

# Same assay, conditions: csUBP7 Acrylodan conjugate; emission spectrum shape change on urea
row,Molecule,Acrylodan Shape
1,B1,d
2,B2,d
3,B3,m
4,B4,m
5,B5,0
6,B6,d
7,B7,d
8,B8,d
9,B9,m

# Same assay, conditions: csUBP7 Acrylodan conjugate; estimated change in populations of major emission bands
row,Molecule,Acrylodan Dipoles
1,B1,b→g
2,B2,b/g→b
3,B4,b/g
4,B5,"g (g, green (maxima >500 nm))"
5,B6,b/g→g
6,B7,b/g→b
7,B8,b/g→g
8,B9,"g (g, green (maxima >500 nm))"

# Same assay, conditions: csUBP7 Acrylodan conjugate; urea; read-out: Acrylodan ^trueKd
row,Kd,Molecule
1,0.09 mM,B1
2,7.1 mM,B2
3,3.4 mM,B3
4,0.7 mM,B4
5,5.2 mM,B7
6,29 mM,B8
7,4.6 mM,B9

# Same assay, conditions: csUBP7 Badan conjugate; emission intensity change on urea
row,Molecule,Badan Intensity
1,B1,−
2,B2,+
3,B3,+
4,B4,−
5,B5,−
6,B7,+
7,B8,−
8,B9,−

# Same assay, conditions: csUBP7 Badan conjugate; emission spectrum shape change on urea
row,Molecule,Badan Shape
1,B1,m
2,B2,m
3,B3,m
4,B4,d
5,B5,d
6,B6,0
7,B7,d
8,B8,m
9,B9,d

# Same assay, conditions: csUBP7 Badan conjugate; estimated change in populations of major emission bands
row,Molecule,Badan Dipoles
1,B1,b/g
2,B2,b/g
3,B3,b/g
4,B4,b/g→b
5,B5,g→b/g
6,B6,"g (g, green (maxima >500 nm))"
7,B7,g→b
8,B8,b/g
9,B9,g→b/g

# Same assay, conditions: csUBP7 Badan conjugate; urea; read-out: Badan ^trueKd
row,Kd,Molecule
1,0.3 mM,B1
2,8.5 mM,B2
3,16 mM,B3
4,0.6 mM,B4
5,0.007 mM,B5
6,0.3 mM,B7
7,10 mM,B8
8,3.2 mM,B9
